From the DeepSol protein solubility set

Assay: soluble on expression in E. coli; label from the status in PepcDB or PDB records

## STEDLLTYTLDEAERLTGSTLGFFDLISDDQSIMRSACSSNAKKDNCGHARHPIVINFKAPADVLQKKRAIIHNDHATLRHCNSKSVSHKEAIRELIVPVIRNGKVMAILEVGNKPANYDQNDIQLLNELSGVAWDIIARKHAEDSAQKTMK
  soluble on expression in E. coli: not soluble

## MGSDKIHHHHHHLYNQPEVALEKYELTVSRIIKGRGAYICDTGIGQKLLVPYRGHEQRACTLRDTLAFIQRNGMDVEQISQTKEQCIISRDNCEDAYILKDYRAGRECSTDSIDDMRGGSRALAQLHNILEKYPLPSDIEVESLYEKAQRKCAQIVKLKNYILRRSKTNAFEHLFYECYERFLEQGQKSAEILCELENSKTSVPIYCHGAFNQHNVVYTQSGRWLPVNFETMHPGYPETDLAEYMRKMLEKNHWDTAVADAILDSYCSVRSLDDTSMRLLQALLLFPEKFCKLCNHYSNSRKSWVCDRDVDKLAQLIQLSGEREEYLHALQAIV
  soluble on expression in E. coli: not soluble

## MGSDKIHHHHHHMDDFVQSKARKDIFRLKAYVPGKPIEEVKRELGLDSIIKLASNENPLGTSPLALAALQEGLNKIHLYPDANAYELKQELASFWQVPAEQIVVGNGSDELLLLLAQTFINPGDEVIHAEQTFSEYESTSTLMGAHSITIPLKEYKYDLKAILEAINTRTKIIYLCNPNNPTGTIVEQEEIELFMQQVPGEILVVFDEAYGEYVDNPAFGSGLQYLREGRNIVLLKTFSKIYGLAGLRIGYVITTPAIAAALDRVREPFNVNFAAQIAAQAALRDIDFVEKSRQLNLQGKDYLYQELARLGLDYVKTNTNFIFLDTGRDCQLVFRELLQRGVIIRTGDIFGYPTFIRLTIGTMEENRRFIKSLQEVLEVIPL
  soluble on expression in E. coli: not soluble

## MGSDKIHHHHHHMTLDPDAKLPETEEGTVVYNTDPLIIRSHYEIDYIHSYAQDSEFFRALGRKKLMGSKCKKCGYVYATPRSHCMMCGSETEWYELPLKGRVHTYTTCYFSGEEFLNETPFNLILVEFDGVNSLFMSRLIGAETKDIYIGMPVKAKFRRNLKMNVTDVYFVPDVEK
  soluble on expression in E. coli: not soluble

## MNKGQRHIKIREIITSNEIETQDELVDMLKQDGYKVTQATVSRDIKELHLVKVPTNNGSYKYSLPADQRFNPLSKLKRALMDAFVKIDSASHMIVLKTMPGNAQAIGALMDNLDWDEMMGTICGDDTILIICRTPEDTEGVKNRLLELL
  soluble on expression in E. coli: soluble

## HSHSDKHPVTWQPSKDGDRLIGRILLNKRLKDGSVPRDSGAMLGLKVVGGKMTESGRLCAFITKVKKGSLADTVGHLRPGDEVLEWNGRLLQGATFEEVYNIILESKPEPQVELVVSR
  soluble on expression in E. coli: soluble

## MGSSHHHHHHSSGLVPRGSHMHVQAKFSNNLNIFEYSIVIRKIFYLGPPGSFSQEAAEIFGSDLVPVRSISEIFHKISVTGDYGIVPIENSIEGPVNETLDGLFRHEDIYIVDHVEIPIEIFLASNCDTENIRRIYSHPHAIAEAGDYLERTENIEVIRTSSTSEAAKLASMDEAGAALCSMKAAQHYGLANTVKIESKSRNITRFILIGRERNVEGSRHIILCVIPDRPGSLHSLIGVLASRGINMNMIYSRPLRDTIWKYYFYIEFSGKLDEDLLLTMGKQSLRILYKGSFKCCR
  soluble on expression in E. coli: soluble

## MEKPHVVSLIGGFGYREPIFRKVLTTAMLDPGINYTLISGPSLDPSKLGGVPKNVRILNFVEDTYPYIKSSDAVIAPGGHSTIMEALSFGVPILSFPDEGHSEQESNAAVVEEEGYGRMLSYSTPPEVILECIREVIEDEAYRNKVERLQRLSGELEHHHHHH
  soluble on expression in E. coli: not soluble

## MKKPSKCQSPGDSSISAKENDAQSNRSRDSKVAPKSEGLATGLDETEWKSRLTTPEIVLKEIRTLEGVSYYHGMVARDLVESKLTRCGDYLIRATDNRIMEFEFILSFFNKKRIHSHLTIKCDVEAGKWALGLLSVNQFSSVVDLTNFYKTNPIGAGFFLKRAISKGKYMIAHDRIKYSPKDDLLGTGNFSDVFRGKIELENQMVNVALKTTKLLDDTMDPTKNVKANKIKKEMIQEAEVMSQLRHANVTSFFGIAVDRLPILLIIEFCNGGNLQGHLIKFGDRIGTNERFLYLHDASAGLNYIHAMSITHRDIAARNCLISVNGFVKLSDFGMGLKVRRNESAKKVAEDDDGKENKEPKLPVRWMSPELVDTPDAFSKMSDMWSLGILAYEIFTNATKPFFNLDDTDVMQTVKSGKHPPLPLSMGPDLIRLLKDVLVAAPTQRTTADKFYNELHVLCTQKGALSLNGLTINQIRGISRKRVEHWEGYIPQVVICDKNGNERDWGDAPQEMLANVVWRGKK
  soluble on expression in E. coli: not soluble

## DITGIPSGFNDLDQKTSGFQPGDLIIVAGRPSMGKTAFALNIGEHVALETSKPVAVFSMEMGGVQLAMRMLGSIGRLDQHKMRTGQLNDDDWPRLTHALGKLNDAPIFIDESAGLNSLELRARARRLYRQHEGLGLIIIDYLQLMSATSPGSENRAAEISEISRSLKALAKELQVPVIALSQLNRGLEQRPNKRPIMSDL
  soluble on expression in E. coli: not soluble

## GSGIMAASRPLSRFWEWGKNIVCVGRNYADHVREMRSAVLSEPVLFLKPSTAYAPEGSPILMPAYTRNLHHELELGVVMGKRCRAVPEAAAMDYVGGYALCLDMTARDVQDECKKKGLPWTLAKSFTASCPVSAFVPKEKIPDPHKLKLWLKVNGELRQEGETSSMIFSIPYIISYVSKIITLEEGDIILTGTPKGVGPVKENDEIEAGIHGLVSMTFKVEKPEY
  soluble on expression in E. coli: soluble

## MSDSLPQRNGGQILVEALRRNAVDTVYCIPGESYLPVLDALYDTDGIRTVVTRHEGAASNMADAYGKLTGRPGICFVTRGPGATHAANGVHTAQQDSTPMILFVGQVESAFKGREAFQEVDYVQMFSGLAKWAVEIDRIERIPEIVGRAFSVATSGRPGPVVVALPEEILFGSAQVADAPEPRVLPGRPGATAMAELRELLANARRPLLVLGGSGWDSAARKRLGAFVEANGLPVATSFRRQDLFDNRDPHYAGQLGFGAAPALLERLRQADLLLVVGARLGETPSAGYSLVRSPAPAQTLIHVHPDSAELNRVYLARLPIQATPCAFAEALADLAPLPSSTWQDWREAAHADYLAYSTPAASDPAVQGVDLASVVAYLSENLPDDAVIANGAGNYAVWVHRFYRYRQARTQLAPTNGAMGYGLPAAIAASLRDPQRSVVCFAGDGCFMMYPQELATAAQFGATPVVIVVNNGMLGTIRMHQEREYPGRVSATRLDNPDFVALARAFGAHAERVECSADFPAAFRRARESGRPALLELLTDPRQITPQA
  soluble on expression in E. coli: not soluble

## HMSSGSAGLSSLHRTYSQDCSFKNSMYHVGDYVYVEPAEANLQPHIVCIERLWEDSAGEKWLYGCWFYRPNETFHLATRKFLEKEVFKSDYYNKVPVSKILGKCVVMFVKEYFKLCPENFRDEDVYVCESRYSAKTKSFKKIKLWTMPVSSVRFVPRDVPLPVVRVASVFANTD
  soluble on expression in E. coli: soluble

## STAIDGQGKDQVIFVTKEEHETPSTVKQEEEDTNEDPKGKGLILPTGEINWDCPCLGGMASGVCGEQFKSAFTCFHFSQEEVKGSDCLEQFISMQECFHQHPELFPQDNNDLQTADPDQEHSSSISDFTTNKESDSLPTETDEIPTQLPVVS
  soluble on expression in E. coli: soluble

## MLQLKNIGILSTYNSKTDSFDYLKNCNIDIENGIIIGLGDSNHNGDQVIDCNHKLVTPGFVDAHTHPVFVNGREKEFIERISGKSYQEISNKGGGINSSIIRVREIDEIDLLDLVIKRMDDFIYMGTTTIEAKTGYGLNTDSELKSLRVLENAHNKHKIDIFPTFLGAHSVPNEYNGDSNAYTDLLCNEMIPAVAKQGIAKFCDVFCEEEYFDCNQSRKILEKAVEYGLIPRMHTDEFSSIGGVKIASKINAISADHLMEISDEDIELLANSNTIAILLPGTTFFLGKTTYAPARKLIDKGVHVSIATDFNPGSCHIKSMPFIIGLSCIYLGLSIEEALKAATWSGACAINEQERIGSIEVGKKADLIIWDLDTIDQIPYNIINAPIVNVIKDGVPLITLD
  soluble on expression in E. coli: soluble

## DIGCYTLGINKPLEGVDITICMGASVGVSNGLAHVLNNKIIATIGDSTFIHAGIPPLINAVYNHADFVLVILDNSTTGMTGHQPHPGTGFRGCGEAGKAVRIEDIVRGCGVEFVEVVNPYNVRKMVDVLRRALNHDGVAVVIARQPCAILWSRARRREGKIVTYKVTEDC
  soluble on expression in E. coli: not soluble

## NSRVSDLDLELLFQDRAARLGKSISRLIVVASLIDKPTNLGGLCRTCEVFGASVLVVGSLQCISDKQFQHLSVSAEQWLPLVEVKPPQLIDYLQQKKTEGYTIIGVEQTAKSLDLTQYCFPEKSLLLLGNEREGIPANLIQQLDVCVEIPQQGIIRSLNVHVSGALLIWEYTRQQLLSHGDTKP
  soluble on expression in E. coli: soluble

## MLQCIFLISDSGEVMLEKQLTGHRVDRSICAWFWDQYISQGDSFKALPVIASPTHYLFQIVRDGITFLACSQVEMPPLMAIEFLCRVADVLSEYLGGLNEDLIKDNFIIVYELLDEMIDNGFPLTTEPSILKEMIAPPNLVSKMLSVVTGNASNVSDTLPSGAGSCVPWRPTDPKYSSNEVYVDLVEEMDAIVNRDGELVKCEIYGEVQMNSQLTGFPDLTLSFANPSILEDMRFHPCVRYRPWESHQVLSFVPPDGEFKLMSYRVKKLKNTPVYVKPQITSDSGTCRISVLVGIRSDPGKTIESITLSFQLPHCVSSADLSSNHGTVTILSNKTCTWTIGRIPKDKTPCLSGTLALEPGLERLHVFPTFKLGFKIMGIALSGLRIEKLDLQTIPPRLYKGFRAQTRAGEFDVRL
  soluble on expression in E. coli: soluble

## YAEIRARLYLMTGQTNKALNELRRLCNRFPEVNEFRLKYAGTLLDSEKYDEAYEQLQLIARTDSTSGLYHFAMASYYLGTNEKEAAINEMIKVAADKDVAPEQKLPIILRFIGTDTDEEDAPKKEYNILLEKILASHPTEVDARLFYAELLEMQGDSIHAMEVCRPITEFAPKEERAWKFMLGRAVTGQNHTEVHRISEQARQYLPGVPLFYLYDAISYYIEKKGSEAKHILQEALEHIDAEKDPNGLSDIYSQLGDLAYEENKPEEAFANYEKALELNPRNVGVLNNYAYFLAKEGGDLAKAERMAAQCVKLLPDNAVSLDTYGWVFFLRENYTLAKLYIEKALGLAADNPDADVVEHHGDVLYMLGEKEKAMLEWKRAKEIGGGGSPMLDKKIEQGKYIPEKKK
  soluble on expression in E. coli: not soluble

## MSLSDARLVADLSDVFTDIGVEHAVSGAQIEEFVARMPEVGHSLVAVHRRLRAATEELEGYRSRATAETELPPARPMPFEEVRDFFYDRNNYIHDLDMAAERMFTESGMRTGGLDIQLAELMRDRFGISVVIDDNLPDTAKRRYHPDTKVLRVAHWLMPGQRAFQIATQLALVGQSDLISSIVATDDQLSTEARGVARIGLANYFAGAFLLPYREFHRAAEQLRYDIDLLGRRFGVGFETVCHRLSTLQRPRQRGIPFIFVRTDKAGNISKRQSATAFHFSRVGGSCPLWVVHDAFAQPERIVRQVAQMPDGRSYFWVAKTTAADGLGYLGPHKNFAVGLGCDLAHAHKLVYSTGVVLDDPSTEVPIGAGCKICNRTSCAQRAFPYLGGRVAVDENAGSSLPYSSTEQSVEGHHHHHH
  soluble on expression in E. coli: soluble

## SESQDIKALQKELEQFAKLLKQKRITLGYTQADVGLTLGVLFGKVFSQTTICRFEALQLSFKNMCKLRPLLQKWVEEADNNENLQEICKAETLVQARKRKRTSIENRVRGNLENLFLQCPKPTLQQISHIAQQLGLEKDVVRVWFCNRRQKGKRSSSDYAQ
  soluble on expression in E. coli: soluble

## MSPEQSPFHAGELAIQERAGVREQVAGFGSRAIRTFMPDQHREFFALLSLLLVGSLDADGYPSASVLWGPPGFARSPEPTRLRIDNLPQADDPLAANLEAGTRLGILGLEWPTRRRNRMNGRVLARDGKGFTVGVEQSFGNCPKYIQARSHQPVSRIASPALQGEGLDPRWLSLVSCSDTLFIASQHADPLRGGVDVSHRGGPPGFLRLGADGRLWLPDYAGNRLFNTLGNLLQDPRCGLLFIDFDNGDLLHLHAEAELFWPGSQPSIPWPAGAERLLALRPAGWRWRRGRLPLAFGEPQPSPFLPAGES
  soluble on expression in E. coli: not soluble
